According to US20200079833A1 (AstraZeneca / MedImmune, published 2020):
Non-standard residues stand in square brackets, D forms with d. Groups on a side chain read outwards from the residue. Primed or numbered codes have the meaning given here. No end group written: not given here. *: point of attachment. Stearoyl = CCCCCCCCCCCCCCCCCC(=O)*; αMeF = C[C@](N)(Cc1ccccc1)C(=O)O; αMeK = C[C@](N)(CCCCN)C(=O)O; αMeS = C[C@](N)(CO)C(=O)O; PEG2′ = not defined here; Aib = CC(C)(N)C(=O)O; Ahx = NCCCCCC(=O)O

What was measured:
Assay in all cases: cell-based or functional assay
GLP-1 receptor (GLP-1R) = GLP-1 receptor (GLP-1R) (human, UniProt P43220 24-463)
glucagon receptor (GCGR) = glucagon receptor (GCGR) (human, UniProt P47871 26-477)
[1] = target: T1, glucose-dependent insulinotropic peptide (gastric inhibitory polypeptide) receptor (GIPR) (human, UniProt P48546 22-466)
T1 sequence (looked up): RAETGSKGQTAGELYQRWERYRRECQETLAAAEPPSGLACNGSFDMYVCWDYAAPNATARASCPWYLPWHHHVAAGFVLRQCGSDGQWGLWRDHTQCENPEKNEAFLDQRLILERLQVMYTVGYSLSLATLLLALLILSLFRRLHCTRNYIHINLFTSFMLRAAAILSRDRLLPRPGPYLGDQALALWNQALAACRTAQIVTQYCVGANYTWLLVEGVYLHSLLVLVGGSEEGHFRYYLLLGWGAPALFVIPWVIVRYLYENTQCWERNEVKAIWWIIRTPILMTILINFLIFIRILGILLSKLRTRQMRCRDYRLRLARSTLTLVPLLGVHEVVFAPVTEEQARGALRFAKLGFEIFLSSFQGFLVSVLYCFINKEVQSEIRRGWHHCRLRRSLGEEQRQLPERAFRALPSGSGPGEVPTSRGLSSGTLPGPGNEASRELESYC

Chain of glucagon receptor (GCGR) (P47871 26-477): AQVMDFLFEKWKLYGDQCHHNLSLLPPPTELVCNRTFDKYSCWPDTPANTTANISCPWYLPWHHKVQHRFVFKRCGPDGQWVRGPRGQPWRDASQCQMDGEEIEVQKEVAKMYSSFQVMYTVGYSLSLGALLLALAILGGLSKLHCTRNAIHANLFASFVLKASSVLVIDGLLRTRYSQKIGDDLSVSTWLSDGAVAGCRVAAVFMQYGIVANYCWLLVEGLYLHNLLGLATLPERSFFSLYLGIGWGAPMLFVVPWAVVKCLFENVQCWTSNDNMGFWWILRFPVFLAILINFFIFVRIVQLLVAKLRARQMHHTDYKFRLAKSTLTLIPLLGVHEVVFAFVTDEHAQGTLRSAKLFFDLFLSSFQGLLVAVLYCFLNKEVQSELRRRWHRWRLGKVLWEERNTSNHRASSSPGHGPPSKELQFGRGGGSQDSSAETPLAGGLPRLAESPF

Binder	Primary assay EC50 (cAMP), GLP-1R n1 (GLP-1 receptor (GLP-1R)) [nM]	Primary assay EC50 (cAMP), GLP-1R n2 (GLP-1 receptor (GLP-1R)) [nM]	Primary assay EC50 (cAMP), Mean pM GLP-1R (GLP-1 receptor (GLP-1R)) [pM]	Primary assay EC50 (cAMP), Gluc-R, first run (glucagon receptor (GCGR)) [nM]	Primary assay EC50 (cAMP), Gluc-R, second run (glucagon receptor (GCGR)) [nM]	Primary assay EC50 (cAMP), GIP-R, first run [1] [nM]	Primary assay EC50 (cAMP), GIP-R, second run [1] [nM]
H[Aib]EGS[αMeF]TSDV[αMeS]S[αMeF]LEGEAA[αMeK]E[αMeF]IA[αMeF]VVK([PEG2′-PEG2′-Stearoyl])GG-NH2 [SEQ ID NO 189]	0.03	0.012	20.8	27	27	27	27
H[Aib]EGS[αMeF]TSDV[αMeS]S[αMeF]LEGEAA[αMeK]E[αMeF]IA[αMeF]VVK([PEG2′-Stearoyl])GG-NH2 [SEQ ID NO 188]	0.17	0.077	125	28	28	28	28
H[Aib]EGS[αMeF]TSDV[αMeS]S[αMeF]LEGEAA[αMeK]E[αMeF]IA[αMeF]VVK([Ahx-Ahx-Ahx-Stearoyl])GG-NH2 (N-terminus assumed; SMILES CCCCCCCCCCCCCCCCCC(=O)NCCCCCC(=O)NCCCCCC(=O)NCCCCCC(=O)NCCCC[C@H](NC(=O)[C@@H](NC(=O)[C@@H](NC(=O)[C@](C)(Cc1ccccc1)NC(=O)[C@H](C)NC(=O)[C@@H](NC(=O)[C@](C)(Cc1ccccc1)NC(=O)[C@H](CCC(=O)O)NC(=O)[C@](C)(CCCCN)NC(=O)[C@H](C)NC(=O)[C@H](C)NC(=O)[C@H](CCC(=O)O)NC(=O)CNC(=O)[C@H](CCC(=O)O)NC(=O)[C@H](CC(C)C)NC(=O)[C@](C)(Cc1ccccc1)NC(=O)[C@H](CO)NC(=O)[C@](C)(CO)NC(=O)[C@@H](NC(=O)[C@H](CC(=O)O)NC(=O)[C@H](CO)NC(=O)[C@@H](NC(=O)[C@](C)(Cc1ccccc1)NC(=O)[C@H](CO)NC(=O)CNC(=O)[C@H](CCC(=O)O)NC(=O)C(C)(C)NC(=O)[C@@H](N)Cc1c[nH]cn1)[C@@H](C)O)C(C)C)[C@@H](C)CC)C(C)C)C(C)C)C(=O)NCC(=O)NCC(N)=O) [SEQ ID NO 187]	0.064	0.031	47.4	26	26	26	26
H[Aib]EGS[αMeF]TSDV[αMeS]S[αMeF]LEGEAA[αMeK]E[αMeF]IA[αMeF]VVK([PEG2′-PEG2′-PEG2′-Stearoyl])GG-NH2 [SEQ ID NO 190]	0.0097	0.0047	7.2	26	26	26	26
